Assay results as given in paper PMC7536822, “Implications for tetraspanin-enriched microdomain assembly based on structures of CD9 with EWI-F” (Life Science Alliance, 2020).

Key:
[1] = target: T1, detergent-purified, full-length CD9 (wtCD9-3xSTREP) (human, UniProt P21926 1-228); experiment: ELISA; apparent, detergent-purified CD9
T1 chain: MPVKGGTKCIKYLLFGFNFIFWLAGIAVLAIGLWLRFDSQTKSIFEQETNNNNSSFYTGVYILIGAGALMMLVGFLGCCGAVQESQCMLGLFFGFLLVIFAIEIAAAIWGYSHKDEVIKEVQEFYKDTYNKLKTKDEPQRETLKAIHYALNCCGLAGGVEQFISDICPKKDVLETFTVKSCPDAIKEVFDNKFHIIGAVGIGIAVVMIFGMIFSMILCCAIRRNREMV

[2] = target: T2, endogenous CD9 on HeLa cells (human (endogenous in HeLa), UniProt P21926 1-228); experiment: apparent, on HeLa cells
T2 chain: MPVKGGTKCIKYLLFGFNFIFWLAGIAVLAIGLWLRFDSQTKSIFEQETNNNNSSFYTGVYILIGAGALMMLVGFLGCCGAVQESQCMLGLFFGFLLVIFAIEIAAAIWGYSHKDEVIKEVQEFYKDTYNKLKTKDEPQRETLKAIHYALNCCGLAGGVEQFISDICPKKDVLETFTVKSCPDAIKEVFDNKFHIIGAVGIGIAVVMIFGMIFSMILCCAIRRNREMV

[3] = target: T3, detergent-purified, full-length CD9 (wtCD9-3xSTREP) (human, UniProt P21926); experiment: ELISA; 100 ng wtCD9-3Strep captured on Strep-Tactin coated wells; serial dilutions of nanobody for 2 h at rt in 2% BSA, 25 mM Hepes pH 7.5, 150 mM NaCl, 0.025% DDM; detection with anti-VHH and IRDye800CW; triplicate; apparent KD by one-site specific binding fit; details: both partners purified
T3 construct: human CD9 (Tspan29), wild type, full length; The construct section lists full-length CD9 with an N-terminal Strep-II tag or an N-terminal Strep3-GFP tag with a TEV site; also called wtCD9-3Strep; source: detergent-purified

[4] = target: T4, endogenous CD9 on HeLa cells (human (endogenous in HeLa), UniProt P21926); experiment: binding assay on cells in 96-well plates, infrared fluorescence read-out (anti-VHH, IRDye800CW, Odyssey); HeLa cells seeded in 96-well plates, serial dilutions of nanobody for 2 h at 4°C in 1% BSA, 25 mM Hepes pH 7.2 in DMEM; cells fixed with 4% formaldehyde before detection; triplicate; apparent KD by one-site specific binding fit; details: one partner purified
T4 construct: CD9 (Tspan29) endogenous on HeLa cells; also called CD9 endogenously expressed on HeLa cells; cell-membrane embedded CD9; source: endogenous, on HeLa cells

[5] = target: T5, full-length EWI-F (human, UniProt Q9P2B2 26-879); experiment: pull-down; Strep3-GFP-CD9-W6 co-transfected with EWI-F variants in 25 ml HEK293-EBNA cultures; lysis in 1% DDM, 0.5% digitonin; Strep-Tactin resin, washes in 0.08% digitonin, elution with desthiobiotin; SDS-PAGE; details: partners not purified
T5 construct: human EWI-F, full length, UniprotKB Q9P2B2; All EWI-F constructs were cloned with an N-terminal cystatin signal peptide; Heterogeneously glycosylated; also called CD9-partner 1; prostaglandin F2 receptor negative regulator; source: HEK293-EBNA cells, co-transfected with Strep3-GFP-CD9-W6; in lysate, co-purified (Strep-Tactin, SEC)
T5 sequence (looked up): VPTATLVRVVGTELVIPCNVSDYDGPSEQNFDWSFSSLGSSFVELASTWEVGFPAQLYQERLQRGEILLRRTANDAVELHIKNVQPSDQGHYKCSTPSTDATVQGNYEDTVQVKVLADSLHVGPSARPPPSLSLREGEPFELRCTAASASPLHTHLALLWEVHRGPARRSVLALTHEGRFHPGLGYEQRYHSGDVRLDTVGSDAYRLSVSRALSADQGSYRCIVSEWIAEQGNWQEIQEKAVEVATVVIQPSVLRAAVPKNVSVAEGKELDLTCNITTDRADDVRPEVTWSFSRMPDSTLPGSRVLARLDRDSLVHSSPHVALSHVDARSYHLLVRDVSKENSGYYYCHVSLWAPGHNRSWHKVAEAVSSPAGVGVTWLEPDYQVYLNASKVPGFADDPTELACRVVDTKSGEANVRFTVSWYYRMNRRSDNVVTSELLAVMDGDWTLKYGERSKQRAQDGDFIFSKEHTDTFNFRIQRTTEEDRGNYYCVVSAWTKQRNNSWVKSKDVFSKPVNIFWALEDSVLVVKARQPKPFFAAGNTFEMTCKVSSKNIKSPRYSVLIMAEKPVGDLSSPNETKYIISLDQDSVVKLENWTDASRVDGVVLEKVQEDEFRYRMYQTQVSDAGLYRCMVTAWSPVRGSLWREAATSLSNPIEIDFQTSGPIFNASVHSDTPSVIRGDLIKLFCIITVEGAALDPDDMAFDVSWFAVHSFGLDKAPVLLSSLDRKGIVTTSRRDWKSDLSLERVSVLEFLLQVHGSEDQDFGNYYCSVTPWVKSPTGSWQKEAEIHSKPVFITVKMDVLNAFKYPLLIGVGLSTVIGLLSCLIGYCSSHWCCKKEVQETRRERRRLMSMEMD

[6] = target: T6, CD9–EWI-F_(ΔIg1-5) complex (human, UniProt P21926;Q9P2B2); experiment: SEC; purified, EndoHF-treated CD9–EWI-F_(ΔIg1-5) complex incubated with a large excess of 4C8, Superdex 200 10/300 increase in 50 mM Tris pH 7.8, 150 mM NaCl, 0.08% digitonin, 4°C; SDS-PAGE of the peak; details: both partners purified
T6 construct: human CD9 (Tspan29), wild type, full length; as m12; human EWI-F, residues T685-D879, UniprotKB Q9P2B2; as m11; Preformed complex to which 4C8 was added; source: HEK293-EBNA GNT1- cells, co-expressed, co-purified in digitonin (Strep-Tactin), EndoHF treated; not shown: Strep-II, N-terminal, kept; copies: 2 + 2

| Binder | Kd [1] | Kd [2] | binding result [3] | binding result [4] | binding result [5] | binding result [6] |
| --- | --- | --- | --- | --- | --- | --- |
| anti-CD9 nanobody 4E8 (VHH, they are in the deposited structure PDB 6Z1V (nanobody chain of CD9EC2-4E8); Differs from 4C8 in CDR2 and CDR3; The thrombin-cleavable tag was not removed before crystallization; also called Nb 4E8; source: E. coli BL-21 Codon Plus (DE3)-RIL, periplasmic secretion, purified (HisTrap, desalting); not shown: His6, C-terminal, kept) VHH: EVQLVESGGRLVRTGGSLRLSCAASGRTFSNYVMGWFRQAPGKEREVVAAITWSGDITWHADFVKGRFTISRDNAKNTVYLQMNSLKPEDTAVYYCAATERWGLRAPADWGSWGQGTQVTVSS | 2.01 nM | 32.6 nM | binds | binds | – | – |
| N-Strep3-GFP-tagged CD9-W6 (natural protein, human, UniProt P21926 1-228, looked up, human CD9 (Tspan29), full length, all palmitoylated cysteines mutated to tryptophan (CD9-W6); The Strep3-GFP tag is followed by a TEV-protease site; The results speak only of 'Strep-GFP-tagged CD9'; the methods name CD9-W6 for these experiments; also called Strep-GFP-tagged CD9; source: HEK293-EBNA cells, co-transfected with EWI-F variants; in lysate (DDM or DDM/digitonin), Strep-Tactin purified, …) MPVKGGTKWIKYLLFGFNFIFWLAGIAVLAIGLWLRFDSQTKSIFEQETNNNNSSFYTGVYILIGAGALMMLVGFLGWWGAVQESQWMLGLFFGFLLVIFAIEIAAAIWGYSHKDEVIKEVQEFYKDTYNKLKTKDEPQRETLKAIHYALNCCGLAGGVEQFISDICPKKDVLETFTVKSCPDAIKEVFDNKFHIIGAVGIGIAVVMIFGMIFSMILWWAIRRNREMV | – | – | – | – | binds | – |
| anti-CD9 nanobody 4C8 (VHH, they are in the deposited structures PDB 6Z1Z (4C8 alone) and PDB 6Z20 (nanobody chain of CD9EC2-4C8); Selected from a phage library (Neviani et al, 2020); The thrombin-cleavable His tag was removed with thrombin; also called Nb 4C8; source: E. coli BL-21 Codon Plus (DE3)-RIL, periplasmic secretion, purified (HisTrap, desalting; thrombin treatment, Superdex75); not shown: His6, C-terminal, cleaved) VHH: EVQLVESGGGLVQAGGSLRLSCAASGRTFSDYVMGWFRQAPGKERTFVARIGWSGDLTYYADSVKGRFTISRDNAKNTVYLQMNSLKPEDTAIYYCAADERWGTGGKFDYWGQGTQVTVSS | 0.9 nM | 0.59 nM | binds | binds | – | binds |
